Data set [1] has as its system T1, platelet ADAMTS13.
T1 sequence: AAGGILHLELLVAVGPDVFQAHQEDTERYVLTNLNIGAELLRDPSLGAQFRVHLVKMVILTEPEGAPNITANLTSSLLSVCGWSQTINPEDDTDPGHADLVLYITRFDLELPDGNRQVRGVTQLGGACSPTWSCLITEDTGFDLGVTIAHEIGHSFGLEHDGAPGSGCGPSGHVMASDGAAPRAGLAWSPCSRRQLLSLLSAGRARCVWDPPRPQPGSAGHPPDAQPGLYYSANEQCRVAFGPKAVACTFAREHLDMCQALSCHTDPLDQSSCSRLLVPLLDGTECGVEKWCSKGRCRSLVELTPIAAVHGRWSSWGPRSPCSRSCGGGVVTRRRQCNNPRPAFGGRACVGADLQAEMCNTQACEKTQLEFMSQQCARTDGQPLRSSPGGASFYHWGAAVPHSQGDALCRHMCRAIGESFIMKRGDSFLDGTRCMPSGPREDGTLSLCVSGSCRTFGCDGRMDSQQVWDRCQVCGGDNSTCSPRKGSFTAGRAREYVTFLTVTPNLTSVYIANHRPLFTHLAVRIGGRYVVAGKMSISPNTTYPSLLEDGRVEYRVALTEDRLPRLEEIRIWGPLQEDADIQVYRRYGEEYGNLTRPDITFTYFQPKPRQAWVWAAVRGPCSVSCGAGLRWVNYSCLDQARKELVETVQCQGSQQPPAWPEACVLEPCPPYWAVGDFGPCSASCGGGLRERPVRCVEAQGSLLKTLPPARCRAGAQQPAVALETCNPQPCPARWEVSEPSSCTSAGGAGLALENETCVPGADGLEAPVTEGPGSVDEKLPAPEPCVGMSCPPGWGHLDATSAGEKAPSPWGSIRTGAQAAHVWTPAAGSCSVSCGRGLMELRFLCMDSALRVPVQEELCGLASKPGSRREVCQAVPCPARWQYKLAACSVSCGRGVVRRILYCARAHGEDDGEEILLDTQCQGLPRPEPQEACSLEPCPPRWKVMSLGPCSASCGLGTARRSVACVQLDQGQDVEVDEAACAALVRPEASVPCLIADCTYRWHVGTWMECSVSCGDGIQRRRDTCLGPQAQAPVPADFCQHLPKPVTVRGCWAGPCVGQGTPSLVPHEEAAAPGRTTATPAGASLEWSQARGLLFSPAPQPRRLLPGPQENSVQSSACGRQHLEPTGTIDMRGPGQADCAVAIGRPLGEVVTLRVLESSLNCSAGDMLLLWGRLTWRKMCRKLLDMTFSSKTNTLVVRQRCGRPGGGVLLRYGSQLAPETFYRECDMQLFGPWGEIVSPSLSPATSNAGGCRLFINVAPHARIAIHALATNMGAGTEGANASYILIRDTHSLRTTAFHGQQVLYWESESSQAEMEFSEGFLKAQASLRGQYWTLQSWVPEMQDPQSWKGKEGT

The next data set deals with ADAMTS13. Nature of the data set: ADAMTS13 activity in PRP using peptidyl substrates. The data set is classed as biochemical, human. Particulars: normal PRP 20 μl, 0.8 mM substrate, 37° C., 10 mM Tris-HCl pH 8.0, Ex 360 nm/Em 460 nm, FIG. 3. The method, then:
Blood was collected by venopuncture into collection tubes containing 0.12 M sodium citrate, an anti-coagulant. The citrated blood was centrifuged at 700 rpm for 10 minutes. The supernatant was removed and saved as the platelet rich plasma (PRP) fraction. The PRP was centrifuged at 10,000 rpm for 20 minutes. The supernatant was removed and saved as the platelet poor plasma (PPP) fraction. The pellet contained the platelets, which were washed by resuspending in 10 mM Tris-HCl pH 8.0 buffer and centrifuging at 10,000 rpm for 10 minutes. The isolated platelets were resuspended in buffer and used in experiments.
As discussed above, Furlan et al. reported that some peptidyl-pNA moieties, such as XLY-pNA and XVY-pNA, were not substrates for ADAMTS13. We prepared LVY-pNA and tested it for its ability to be cleaved by ADAMTS13. The results shown in FIG. 2 confirm the findings of Furlan et al., i.e., LVY-pNA was not cleaved by ADAMTS13.
In order to determine the effect of modifying the length of the peptide sequence conjugated to the AMC fluorochrome, normal PRP (20 μl) was incubated at 37° C. with a final concentration of 0.8 mM Suc-LLVY-AMC or LVY-AMC in 10 mM Tris-HCl pH 8.0 buffer in total volume of 200 μl. Fluorescence was measured using a microtiter fluorophotometric plate reader (Ex 360 nm/Em 460 nm).

The subject of data set [2] is platelet ADAMTS13. The data set can be described thus: Enhancement of platelet ADAMTS13 activity by treatment with FXIa. In kind it is biochemical, human. Particulars: 0.3 ng/ml FXIa, FIG. 11. The method, then: Washed normal platelets from 200 μL of PRP were resuspended in 1 ml of assay buffer. Washed platelets from 1 ml of PRP from a subject with acquired TTP were resuspended in 50 μL of assay buffer. Normal or TTP platelets (10 μl) were added to 10 mM Tris-HCl pH 8.0 assay buffer (80 μl) or assay buffer containing 0.3 ng/ml of FXIa (80 μl). LVY-AMC substrate (10 μl of 2 mM) was added and the fluorescence was monitored (Ex 360 nm/Em 440 nm) for 1500 seconds. FXIa at 0.3 ng/ml was used as a control.

Data set [3] concerns the target T2, NH2-Arg-Lys(DABCYL)-NLVYMVTGD(EDANS)-Arg-COOH.
T2 chain: RKNLVYMVTGDR

Another data set concerns the target T3, Leu-Val-Tyr-AMC.
T3 chain: LVY

For another data set, the target named is T4, Suc-Leu-Leu-Val-Tyr-AMC.
T4 chain: LLVY

Ends that are not written are not given here. * marks the point of attachment. AMC = Cc1cc(=O)oc2cc(N*)ccc12

For activated Factor XI, in the data set on platelet ADAMTS13 [1], the “ADAMTS13 activity towards LVY-AMC substrate” value is reported as “ADAMTS13 activity was significantly increased (by approximately 8-fold) towards LVY-AMC substrate upon treatment of platelets with FXIa”.
On to “Leu-Val-Tyr-AMC (Leu-Val-Tyr-{AMC}) [LVY-AMC, fluorogenic peptidyl substrate from Bachem Bioscience Inc; also made by QPR]”, for which, in the data set on ADAMTS13, the “cleavage of peptidyl-AMC substrate by ADAMTS13 in PRP” value was “cleaved”.
Consider “FXIa: activated Factor XI, plasma serine protease”, for which, in the data set with platelet ADAMTS13 [2] (normal platelets, 1500 seconds), the “increase of ADAMTS13 activity towards LVY-AMC substrate upon treatment of platelets with FXIa” value is listed as “approximately 8 fold”. Also, the “enhancement of activity of platelets by treatment with FXIa” value in the data set on platelet ADAMTS13 [2] (platelets from PRP of an acquired TTP patient, compared with normal individual) is recorded as “much lesser extent”.

B1: platelet ADAMTS13 (protein)
chain: AAGGILHLELLVAVGPDVFQAHQEDTERYVLTNLNIGAELLRDPSLGAQFRVHLVKMVILTEPEGAPNITANLTSSLLSVCGWSQTINPEDDTDPGHADLVLYITRFDLELPDGNRQVRGVTQLGGACSPTWSCLITEDTGFDLGVTIAHEIGHSFGLEHDGAPGSGCGPSGHVMASDGAAPRAGLAWSPCSRRQLLSLLSAGRARCVWDPPRPQPGSAGHPPDAQPGLYYSANEQCRVAFGPKAVACTFAREHLDMCQALSCHTDPLDQSSCSRLLVPLLDGTECGVEKWCSKGRCRSLVELTPIAAVHGRWSSWGPRSPCSRSCGGGVVTRRRQCNNPRPAFGGRACVGADLQAEMCNTQACEKTQLEFMSQQCARTDGQPLRSSPGGASFYHWGAAVPHSQGDALCRHMCRAIGESFIMKRGDSFLDGTRCMPSGPREDGTLSLCVSGSCRTFGCDGRMDSQQVWDRCQVCGGDNSTCSPRKGSFTAGRAREYVTFLTVTPNLTSVYIANHRPLFTHLAVRIGGRYVVAGKMSISPNTTYPSLLEDGRVEYRVALTEDRLPRLEEIRIWGPLQEDADIQVYRRYGEEYGNLTRPDITFTYFQPKPRQAWVWAAVRGPCSVSCGAGLRWVNYSCLDQARKELVETVQCQGSQQPPAWPEACVLEPCPPYWAVGDFGPCSASCGGGLRERPVRCVEAQGSLLKTLPPARCRAGAQQPAVALETCNPQPCPARWEVSEPSSCTSAGGAGLALENETCVPGADGLEAPVTEGPGSVDEKLPAPEPCVGMSCPPGWGHLDATSAGEKAPSPWGSIRTGAQAAHVWTPAAGSCSVSCGRGLMELRFLCMDSALRVPVQEELCGLASKPGSRREVCQAVPCPARWQYKLAACSVSCGRGVVRRILYCARAHGEDDGEEILLDTQCQGLPRPEPQEACSLEPCPPRWKVMSLGPCSASCGLGTARRSVACVQLDQGQDVEVDEAACAALVRPEASVPCLIADCTYRWHVGTWMECSVSCGDGIQRRRDTCLGPQAQAPVPADFCQHLPKPVTVRGCWAGPCVGQGTPSLVPHEEAAAPGRTTATPAGASLEWSQARGLLFSPAPQPRRLLPGPQENSVQSSACGRQHLEPTGTIDMRGPGQADCAVAIGRPLGEVVTLRVLESSLNCSAGDMLLLWGRLTWRKMCRKLLDMTFSSKTNTLVVRQRCGRPGGGVLLRYGSQLAPETFYRECDMQLFGPWGEIVSPSLSPATSNAGGCRLFINVAPHARIAIHALATNMGAGTEGANASYILIRDTHSLRTTAFHGQQVLYWESESSQAEMEFSEGFLKAQASLRGQYWTLQSWVPEMQDPQSWKGKEGT
As for B1, the “fluorescence over time (FRET substrate cleavage)” value in data set [3] is given as “incubation of platelets with NH2-Arg-Lys(DABCYL)-NLVYMVTGD(EDANS)-Arg-COOH results in increased fluorescence over time”. Further, in the data set with Leu-Val-Tyr-AMC, the “fluorescence over time (LVY-AMC cleavage)” value is reported as “the activity in platelets was due to ADAMTS13 cleaving the LVY-AMC substrate”.

B2: recombinant ADAMTS13 (protein)
chain: AAGGILHLELLVAVGPDVFQAHQEDTERYVLTNLNIGAELLRDPSLGAQFRVHLVKMVILTEPEGAPNITANLTSSLLSVCGWSQTINPEDDTDPGHADLVLYITRFDLELPDGNRQVRGVTQLGGACSPTWSCLITEDTGFDLGVTIAHEIGHSFGLEHDGAPGSGCGPSGHVMASDGAAPRAGLAWSPCSRRQLLSLLSAGRARCVWDPPRPQPGSAGHPPDAQPGLYYSANEQCRVAFGPKAVACTFAREHLDMCQALSCHTDPLDQSSCSRLLVPLLDGTECGVEKWCSKGRCRSLVELTPIAAVHGRWSSWGPRSPCSRSCGGGVVTRRRQCNNPRPAFGGRACVGADLQAEMCNTQACEKTQLEFMSQQCARTDGQPLRSSPGGASFYHWGAAVPHSQGDALCRHMCRAIGESFIMKRGDSFLDGTRCMPSGPREDGTLSLCVSGSCRTFGCDGRMDSQQVWDRCQVCGGDNSTCSPRKGSFTAGRAREYVTFLTVTPNLTSVYIANHRPLFTHLAVRIGGRYVVAGKMSISPNTTYPSLLEDGRVEYRVALTEDRLPRLEEIRIWGPLQEDADIQVYRRYGEEYGNLTRPDITFTYFQPKPRQAWVWAAVRGPCSVSCGAGLRWVNYSCLDQARKELVETVQCQGSQQPPAWPEACVLEPCPPYWAVGDFGPCSASCGGGLRERPVRCVEAQGSLLKTLPPARCRAGAQQPAVALETCNPQPCPARWEVSEPSSCTSAGGAGLALENETCVPGADGLEAPVTEGPGSVDEKLPAPEPCVGMSCPPGWGHLDATSAGEKAPSPWGSIRTGAQAAHVWTPAAGSCSVSCGRGLMELRFLCMDSALRVPVQEELCGLASKPGSRREVCQAVPCPARWQYKLAACSVSCGRGVVRRILYCARAHGEDDGEEILLDTQCQGLPRPEPQEACSLEPCPPRWKVMSLGPCSASCGLGTARRSVACVQLDQGQDVEVDEAACAALVRPEASVPCLIADCTYRWHVGTWMECSVSCGDGIQRRRDTCLGPQAQAPVPADFCQHLPKPVTVRGCWAGPCVGQGTPSLVPHEEAAAPGRTTATPAGASLEWSQARGLLFSPAPQPRRLLPGPQENSVQSSACGRQHLEPTGTIDMRGPGQADCAVAIGRPLGEVVTLRVLESSLNCSAGDMLLLWGRLTWRKMCRKLLDMTFSSKTNTLVVRQRCGRPGGGVLLRYGSQLAPETFYRECDMQLFGPWGEIVSPSLSPATSNAGGCRLFINVAPHARIAIHALATNMGAGTEGANASYILIRDTHSLRTTAFHGQQVLYWESESSQAEMEFSEGFLKAQASLRGQYWTLQSWVPEMQDPQSWKGKEGT
Consider B2, for which the “fluorescence signal (Suc-LLVY-AMC cleavage)” value in the data set with Suc-Leu-Leu-Val-Tyr-AMC is “a greater fluorescence signal was produced by the supernatant from transfected cells verses supernatant from mock transfected cells”.

The values are drawn from patent US20080138837A1, “Methods and kits for detecting and measuring ADAMTS13/FXI complexes” (priority 2004, published 2008).
